From US20090035308A1

Target: Notch1-Fc
Assay: competition ELISA: Dll4-Fc premixed with 50 ng Dll4 (E8)-AP on coated Notch1-Fc; reference Dll4-L1-Fc

B1: Dll4-L2-Fc (Fc fusion, part only; not given: linker, Fc, not shown: a dimerising Fc or GST)
chain, part: SGVFQLQLQEFINERGVLASGRPCEPGCRTFFRVCLKHFQAVVSPGPCTFGTVSTPVLGTNSFAVRDDSSGGGRNPLQLPFNFTWPGTFSLIIEAWHAPGDDLRPEALPPDALISKIAIQGSLAVGQNWLLDEQTSTLTRLRYSYRVICSDNYYGDNCSRLCKKRNDHFGHYVCQPDGNLSCLPGWTGEYCQQPICLSGCHEQNGYCSKPAECLCRPGWQGRLCNECIPHNGCRHGTCSTPWQCTCDEGWGGLFCDQDLNYCTHHSPCKNGATCSNSGQRSYTCTCRPGYTGVDCELELSECDSNPCRNGGSCKDQEDGYHCLCPPGYYGLHCEHSTLSCADSPCFNGGSCRERNQGANYACECPPNFTGSNCEKKVDRCTSNPCANGGQCLNRGP
Binder B1 has a fold difference between L1 and L2 fusion proteins of 3 fold.
